± gives the uncertainty stated by the source.

The data set is described as follows: self-splicing fitness, log relative to wild type (ln ratio); higher = more splicing; Tetrahymena group I intron in knt gene, E. coli kanamycin selection, DiMSum; sequences stand for … in CUCUCU…GGAGGGAAAAGUUAUCAGGCAUGCACCUGGUAGCUAGUCUUUAAACCAAUAGAUUGCAUCGGUUUAAAAGGCAAGACCGUCAAAUUGCGGGAAAGGGGUCAACAGCCGUUCAGUACCAAGUCUCAGGGGAAACUUUGAGAUGGCCUUGCAAAGGGUAUGGUAAUAAGCUGACGGACAUGGUCCUAACCACGCAGCCAAGUCCUAAGUCAACAGAUCUUCUGUUGAUAUGGAUGCAGUUCACAGACUAAAUGUCGGUCGGGGAAGAUGUAUUCUUCUCAUAAGAUAUAGUCGGACCUCUCCUUAAUGGGAGCUAGCGGAUGAAGUGAUGCAACACUGGAGCCGCUGGGAACUAAUUUGUAUGCGAAAGUAUAUUGAUUAGUUUUGGAGUACUCGUGGUCG
In short, it runs like this:
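Six replicate transformations of E. coli BL21(DE3) with a pET-22b(+) library were grown overnight at 37°C or 30°C. The library randomised all eight P1ex-region intron nucleotides, the intron lying in the knt kanamycin-resistance gene, and plates were LB agar with or without 25 μg/mL kanamycin plus 100 μg/mL carbenicillin, 50 μM IPTG and 0.2% rhamnose. Pooled colonies were amplicon-sequenced on an Illumina HiSeq 2500, and fitness is the DiMSum error-weighted combination of wild-type-normalised replicate fold changes, kanamycin versus none.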

On to CACCAGCAAUAUUACGCCAG, for which the “self-splicing fitness (ln)” value is -0.583 ± 0.075 (30 °C) and 0.205 ± 0.097 (37 °C).
The matching figures for UAACAGCAAUAUUACGACGU: -1.16 ± 0.071 and -0.452 ± 0.091.
On to UUAAAGCAAUAUUACGAACG, for which the “self-splicing fitness (ln)” value amounted to 0.275 ± 0.12 (30 °C) and 0.794 ± 0.16 (37 °C).
CAAGAGCAAUAUUACGUGCA: the “self-splicing fitness (ln)” value (30 °C) is -2.97 ± 0.21 and the “self-splicing fitness (ln)” value (37 °C) is -3.06 ± 0.43.
For GGAGAGCAAUAUUACGGCAU the same measures were -2.03 ± 0.22 and 0.206 ± 0.22.
For GCUAAGCAAUAUUACGUGGG the same measures were -2.99 ± 0.14 and -1.61 ± 0.13.
Turning to CUAUAGCAAUAUUACGCCGC, the “self-splicing fitness (ln)” value (37 °C) is -2.27 ± 0.41.
As to UGAAAGCAAUAUUACGCCGG, the “self-splicing fitness (ln)” value runs as follows: (30 °C) -0.876 ± 0.11; (37 °C) -0.346 ± 0.15.
The matching figures for UUUGAGCAAUAUUACGGCCU: -3.9 ± 0.4 and 0.167 ± 0.26.
With AGCAAGCAAUAUUACGCUUU, the “self-splicing fitness (ln)” value was -2.23 ± 0.17 (30 °C) and -1.55 ± 0.12 (37 °C).
The matching figures for CAGGAGCAAUAUUACGUGGG: -2.85 ± 0.18 and -2.31 ± 0.15.
For CCUUAGCAAUAUUACGAGUG, the “self-splicing fitness (ln)” value runs as follows: (30 °C) -1.07 ± 0.082; (37 °C) 0.122 ± 0.11.
For GGCUAGCAAUAUUACGUACC the same measures were -0.292 ± 0.21 and 0.368 ± 0.23.
Take GCGUAGCAAUAUUACGUCUC: where the note is “37 °C”, the “self-splicing fitness (ln)” value was -2.6 ± 0.39.
As for CAAAAGCAAUAUUACGGGUC, the “self-splicing fitness (ln)” value is -3.11 ± 0.094 (30 °C) and -2.51 ± 0.12 (37 °C).
Regarding AAAGAGCAAUAUUACGAAUG, under “30 °C”, the “self-splicing fitness (ln)” value was -2.69 ± 0.2.
UGCGAGCAAUAUUACGUGGA: the “self-splicing fitness (ln)” value is, setting by setting: (30 °C) -3.04 ± 0.23; (37 °C) -3.49 ± 0.33.
For UGUAAGCAAUAUUACGAACC the same measures were -0.477 ± 0.22 and 0.667 ± 0.32.
With CCGGAGCAAUAUUACGGUGC, the “self-splicing fitness (ln)” value (37 °C) is -1.63 ± 0.45.
For GCCUAGCAAUAUUACGAUAA, the “self-splicing fitness (ln)” value is -2.08 ± 0.12 (30 °C) and -1.75 ± 0.14 (37 °C).
For CUCGAGCAAUAUUACGUCGU, the “self-splicing fitness (ln)” value runs as follows: (30 °C) -1.77 ± 0.26; (37 °C) -1.88 ± 0.37.
In the case of GGGAAGCAAUAUUACGUGCU, the “self-splicing fitness (ln)” value by setting is: (30 °C) -1.69 ± 0.12; (37 °C) -0.273 ± 0.11.
For GAAAAGCAAUAUUACGGCCU the same measures were -0.569 ± 0.12 and 0.296 ± 0.14.
For CGGAAGCAAUAUUACGACAU the same measures were -3.637 ± 0.026 and -2.32 ± 0.038.
Regarding CUACAGCAAUAUUACGCAAC, the “self-splicing fitness (ln)” value runs as follows: (30 °C) -3.66 ± 0.36; (37 °C) -3.03 ± 0.29.
For AGGUAGCAAUAUUACGUGCC the same measures were -1.99 ± 0.022 and -1.22 ± 0.037.
The matching figures for UUCAAGCAAUAUUACGCCAU: -3.57 ± 0.4 and -2.88 ± 0.43.
For CCUGAGCAAUAUUACGGGUU the same measures were -4.27 ± 0.34 and -2.56 ± 0.31.
As to GACCAGCAAUAUUACGUAAA, the “self-splicing fitness (ln)” value (30 °C) was 0.0993 ± 0.067 and the “self-splicing fitness (ln)” value (37 °C) is -0.108 ± 0.094.
The matching figures for UAUCAGCAAUAUUACGGUUC: -2.42 ± 0.14 and 0.223 ± 0.12.
The matching figures for GGCCAGCAAUAUUACGGAAA: -1.27 ± 0.11 and -0.606 ± 0.13.
For the sequence AGCAAGCAAUAUUACGCCUG, the “self-splicing fitness (ln)” value reads like this: (30 °C) -3.23 ± 0.27; (37 °C) -2.54 ± 0.42.
Take CAGCAGCAAUAUUACGUCAC: the “self-splicing fitness (ln)” value (30 °C) is -1.69 ± 0.24 and the “self-splicing fitness (ln)” value (37 °C) was -2.75 ± 0.28.
For UAAUAGCAAUAUUACGUGAU the same measures were -4.15 ± 0.37 and -1.61 ± 0.21.
For ACUCAGCAAUAUUACGUCCA the same measures were -0.69 ± 0.084 and -1.36 ± 0.11.
As for CAAGAGCAAUAUUACGAUAC, where the note is “30 °C”, the “self-splicing fitness (ln)” value was -2.8 ± 0.34.
Turning to CGGAAGCAAUAUUACGAUUA, the “self-splicing fitness (ln)” value is -1.17 ± 0.18 (30 °C) and -1.56 ± 0.16 (37 °C).
For CUUCAGCAAUAUUACGCUUG the same measures were -2.94 ± 0.14 and -1.22 ± 0.12.
The matching figures for UUGCAGCAAUAUUACGGUUA: 0.353 ± 0.082 and 0.0359 ± 0.075.
The matching figures for GCUAAGCAAUAUUACGUGAC: -2.24 ± 0.2 and -0.851 ± 0.21.
Regarding GACAAGCAAUAUUACGACAC, the “self-splicing fitness (ln)” value is, setting by setting: (30 °C) -0.384 ± 0.071; (37 °C) 0.0329 ± 0.11.
For GAACAGCAAUAUUACGCUCA the same measures were -1.23 ± 0.073 and 0.207 ± 0.1.
The matching figures for AUAAAGCAAUAUUACGGGGU: -2.63 ± 0.16 and -1.99 ± 0.14.
The matching figures for AUCGAGCAAUAUUACGCGCU: -2.97 ± 0.26 and -2.87 ± 0.36.
With UUGCAGCAAUAUUACGAGGU, the “self-splicing fitness (ln)” value (30 °C) is -3.94 ± 0.33 and the “self-splicing fitness (ln)” value (37 °C) is -2.65 ± 0.44.
For UGCAAGCAAUAUUACGCGGG the same measures were -3.73 ± 0.27 and -2.42 ± 0.22.
The matching figures for GGGGAGCAAUAUUACGUUAG: -3.73 ± 0.43 and -0.485 ± 0.33.
With GUACAGCAAUAUUACGAGUC, the “self-splicing fitness (ln)” value (30 °C) was -1.88 ± 0.085 and the “self-splicing fitness (ln)” value (37 °C) was -1.53 ± 0.096.
For CGUCAGCAAUAUUACGAACC the same measures were -1.37 ± 0.41 and 0.157 ± 0.37.
The matching figures for AGCAAGCAAUAUUACGUCAC: -2.89 ± 0.16 and -1.88 ± 0.18.
As to GCAGAGCAAUAUUACGGAAU, the “self-splicing fitness (ln)” value runs as follows: (30 °C) -3.4 ± 0.36; (37 °C) -1.51 ± 0.34.
Regarding GGGCAGCAAUAUUACGCCGU, the “self-splicing fitness (ln)” value is, setting by setting: (30 °C) -2.84 ± 0.21; (37 °C) -1.01 ± 0.15.
The matching figures for GACAAGCAAUAUUACGAUCU: -0.884 ± 0.079 and -0.309 ± 0.097.
The matching figures for AUCUAGCAAUAUUACGGUAG: -3.92 ± 0.28 and -2.13 ± 0.22.
For CGCUAGCAAUAUUACGGUUC the same measures were -2.13 ± 0.21 and -0.893 ± 0.26.
Take CCAUAGCAAUAUUACGGGGG: the “self-splicing fitness (ln)” value runs as follows: (30 °C) -3.01 ± 0.16; (37 °C) -3.36 ± 0.31.
For UACAAGCAAUAUUACGUUUG the same measures were -3.72 ± 0.13 and -2.57 ± 0.15.
For GCGUAGCAAUAUUACGUGUG the same measures were -4.47 ± 0.42 and -2.77 ± 0.2.
The matching figures for AUAUAGCAAUAUUACGGAAG: -3.08 ± 0.36 and -1.27 ± 0.34.
For the sequence AGAGAGCAAUAUUACGACAU, the “self-splicing fitness (ln)” value was -2.476 ± 0.019 (30 °C) and -1.94 ± 0.037 (37 °C).
The matching figures for CAUGAGCAAUAUUACGUAUA: -3.31 ± 0.3 and -2.2 ± 0.21.
